From US20260109761A1 (IP2IPO INNOVATIONS, published 2026)
Where a chain is given by its changes, count along the chain named.

B1: H2_T63Y_VL-par (antibody, V domains shown)
VH: QVQLVESGGGVVQPGRSLRLSCAASGFTFSDYGMHWVRQAPGKGLEWVAYISSGGTTIYYADYVKGRFTISRDNSKNTLYLQMNSLRAEDTAVYYCARWTNLYAMDYWGQGTTVTVSS
VL: DIVLTQSPDSLAVSLGERATINCRASKSVSTSGYSYMHWYQQKPGQPPKFLIYLASNLESGVPDRFSGSGSGTDFTLTISSLQAEDVAVYYCQHSREVPYTFGGGTKVEIKR
notes: Fc null human IgG1 / human kappa
B2: H2_Y60K_L2 (antibody, V domains shown)
VH: B1 VH with Y60K, Y63T
VL: B1 VL with L58K
notes: as for B1
B3: H3_M105P_L2 (antibody, V domains shown)
VH: B1 VH with Y63T, M105P
VL: B1 VL with L58K
notes: as for B1
B4: H3_W99H_VL-par (antibody, V domains shown)
VH: B1 VH with Y63T, W99H
VL: B1 VL
notes: as for B1

Target: T1, huZIP12-ECD-GST (human, UniProt Q504Y0 24-202)
T1 construct: also called hZIP12-ECD-GST; human ZIP12-ECD-GST; not shown: glutathione S-transferase (GST) tag
T1 sequence (Q504Y0 24-202): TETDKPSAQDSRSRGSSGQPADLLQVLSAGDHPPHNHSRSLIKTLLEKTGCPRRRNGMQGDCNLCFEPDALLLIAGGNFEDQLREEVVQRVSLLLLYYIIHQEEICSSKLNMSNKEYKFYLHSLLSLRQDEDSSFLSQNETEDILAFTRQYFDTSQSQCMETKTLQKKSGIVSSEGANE
Assay: HTRF competition: unlabelled antibody against Tb-labelled 51B12-parent on hZIP12-ECD-GST, detected with anti-GST-XL665
Protocol: Homogeneous Time Resolved Fluorescence (HTRF) assays were used to analyse the antibodies. A checkerboard assay was performed to validate the binding of the terbium labeled-antibody with hZIP12-ECD-GST. Serial dilutions (starting at 1000 ng/ml, semi-log dilutions) of Terbium-labeled 51B12-parent were incubated with serial dilutions of hZIP12-ECD-GST (starting at 5000 ng/ml, semi-log dilutions) followed by incubation with anti-GST-XL665. After excitation (320 nm), emission signals were obtained and HTRF ratio was calculated (665 nm/615 nm, Panel A). Signal/background ratios (S/B) were calculated from the HTRF ratios (0 ng/ml hZIP12-ECD-GST as background signal) and plotted against the Tb-51B12-parent concentration. The combinations 500 ng/ml hZIP12-ECD-GST+50 ng Tb-Ab, 150 ng/ml hZIP12-ECD-GST+50 ng Tb-Ab and 50 ng/ml hZIP12-ECD-GST+50 ng Tb-Ab were chosen as range for the competition assay. For the HTRF assay, 150 ng/ml hZIP12-ECD-GST+30 ng/ml Tb-51B12 was selected.

Row | Binder | IC50 (read off the curve)
1 | B1 | ~0.2 µg/mL
2 | B2 | ~0.06 µg/mL
3 | B3 | ~0.2 µg/mL
4 | B4 | ~0.06 µg/mL
